# Measured values from patent US20030203447A1 (XOMA TECHNOLOGY, published 2003).
# T1: Ep-CAM on the surface of HT-29 human colorectal carcinoma cells (human, UniProt P16422 24-314)
# T1 construct: also called Epithelial Cell Adhesion Molecule; Ep-CAM-expressing HT-29 cells
# T1 sequence: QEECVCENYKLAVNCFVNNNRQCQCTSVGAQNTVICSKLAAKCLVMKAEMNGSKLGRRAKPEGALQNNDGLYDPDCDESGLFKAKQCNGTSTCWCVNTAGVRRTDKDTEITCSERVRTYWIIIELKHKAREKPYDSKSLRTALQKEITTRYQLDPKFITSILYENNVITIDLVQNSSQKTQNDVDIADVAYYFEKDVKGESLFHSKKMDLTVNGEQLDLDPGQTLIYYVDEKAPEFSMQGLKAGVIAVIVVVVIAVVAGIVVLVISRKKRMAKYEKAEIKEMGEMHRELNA
# B1: human engineered (low risk) ING-1 (antibody, human IgG1, kappa)
# VL: DIVMTQSALSNPVTLGESGSISCRSSKSLLHSNGITYLYWYLQKPGQSPQLLIYQMSNRASGVPDRFSSSGSGTDFTLKISRVEAEDVGVYYCAQNLELPRTFGQGTKLEMKRTVAAPSVFIFPPSDEQLKSGTASVVCLLNNFYPREAKVQWKVDNALQSGNSQESVTEQDSKDSTYSLSSTLTLSKADYEKHKVYACEVTHQGLSSPVTKSFNRGEC
# VH: not shown
# notes: It carries 6 low risk changes in VL and 13 low risk changes in VH; also called ING-1 (heMab); low risk human engineered ING-1
# B2: human engineered (low plus moderate risk) ING-1 (antibody, human IgG1, kappa)
# VL: DIVMTQSPLSLPVTPGEPGSISCRSSKSLLHSNGITYLYWYLQKPGQSPQLLIYQMSNRASGVPDRFSSSGSGTDFTLKISRVEAEDVGVYYCAQNLELPRTFGQGTKLEMKRTVAAPSVFIFPPSDEQLKSGTASVVCLLNNFYPREAKVQWKVDNALQSGNSQESVTEQDSKDSTYSLSSTLTLSKADYEKHKVYACEVTHQGLSSPVTKSFNRGEC
# VH: not shown
# notes: Whole IgG built like pING1937 (human kappa and gamma-1 constant regions); It carries 10 low plus moderate risk changes in VL and 20 in VH; also called product of pING1944
# B3: modified ING-1 with low plus moderate risk light chain and low risk heavy chain (antibody, human IgG1, kappa)
# VL: DIVMTQSPLSLPVTPGEPGSISCRSSKSLLHSNGITYLYWYLQKPGQSPQLLIYQMSNRASGVPDRFSSSGSGTDFTLKISRVEAEDVGVYYCAQNLELPRTFGQGTKLEMKRTVAAPSVFIFPPSDEQLKSGTASVVCLLNNFYPREAKVQWKVDNALQSGNSQESVTEQDSKDSTYSLSSTLTLSKADYEKHKVYACEVTHQGLSSPVTKSFNRGEC
# VH: not shown
# B4: modified ING-1 with low risk light chain and low plus moderate risk heavy chain (antibody, human IgG1, kappa)
# VL: DIVMTQSALSNPVTLGESGSISCRSSKSLLHSNGITYLYWYLQKPGQSPQLLIYQMSNRASGVPDRFSSSGSGTDFTLKISRVEAEDVGVYYCAQNLELPRTFGQGTKLEMKRTVAAPSVFIFPPSDEQLKSGTASVVCLLNNFYPREAKVQWKVDNALQSGNSQESVTEQDSKDSTYSLSSTLTLSKADYEKHKVYACEVTHQGLSSPVTKSFNRGEC
# VH: not shown
# B5: mouse-human chimeric ING-1 (antibody, human IgG1, kappa, V domains shown)
# VH: QIQLVQSGPELKKPGETVKISCKASGYTFTKYGMNWVKQAPGKGLKWMGWINTYTEEPTYGDDFKGRFAFSLETSASTANLQINNLKSEDTATYFCARFGSAVDYWGQGTSVTVSS
# VL: DIVMTQAAFSNPVTLGTSGSISCRSSKSLLHSNGITYLYWYLQKPGQSPQLLIYQMSNLASGVPDRFSSSGSGTDFTLRISRVEAEDVGVYYCAQNLELPRTFGGGTKLEMKR
# notes: Variable regions of mouse antibody Br-1 with human constant regions; also called mouse-human chimeric ING-1 antibody produced by cell line HB 9812
# Key:
# [1] = target: T1, Ep-CAM on the surface of HT-29 human …; experiment: competition with 125I-labelled chimeric ING-1 on HT-29 cells
# Description: (§1) Vectors constructed according to Example 6 encoding human engineered ING-1 light and heavy chain genes, for example, pING1937 (low risk human engineered ING-1) and pING1944 (low plus moderate risk human engineered ING-1) were linearized by XbaI and used to transfect serum-free adapted CHO—K1 followed by selection of G418-resistant transfectants. Protein was purified from shake flask culture supernatants by passage over a protein A column. To evaluate the binding activity of the produced immunoglobulin polypeptides, competition binding assays with the human carcinoma cell line HT-29 were performed. This colorectal carcinoma cell line expresses a molecule known as Ep-CAM on its surface. Ep-CAM is recognized by immunoglobulin polypeptides having the antigen binding specificity of the mouse-human chimeric ING-1 antibody produced by cell line HB 9812 as deposited with the ATCC.
# (§2) HTG29 cells were grown to confluency (˜2×10⁵ cells/well) in 96 well plates. Mouse-human chimeric ING-1 was labeled with Na¹²⁵I (Iodo-gen®, Pierce). The competition conditions included in a 100 μl assay volume, 0.1 nM labeled mouse-human chimeric ING-1, 2-fold serial dilutions of unlabeled immunoglobulin polypeptides, for example, as produced by cells transfected with pING1937 and pING1944. […] Labeled cells were removed with NaOH and counted. […]
# [2] = target: T1, Ep-CAM on the surface of HT-29 human …; experiment: competition binding on HT-29 cells
# Description: as §1, §2
# [3] = target: T1, Ep-CAM on the surface of HT-29 human …; experiment: competition with iodinated low risk ING-1 on HT-29 cells
binder,measurement,setting,value
B1,binding result,[1],binds
B2,binding result,[2],binds
B3,binding result,[3],binds
B4,binding result,[3],binds
B5,binding result,[1],binds
